2 molecules from patent publication US20170002094A1 (Takeda / Millennium, published 2017) can be followed below.

Assay [1] concerns the target T1, human plasma kallikrein (active form) (human, UniProt P03952 20-638).
Assay [2] concerns the target T1, human plasma kallikrein (active form). The assay can be described thus: cell-based or functional assay.

Read-outs that look alike come from different tables or passages of the source.

T1 sequence (P03952 20-638 limits assumed): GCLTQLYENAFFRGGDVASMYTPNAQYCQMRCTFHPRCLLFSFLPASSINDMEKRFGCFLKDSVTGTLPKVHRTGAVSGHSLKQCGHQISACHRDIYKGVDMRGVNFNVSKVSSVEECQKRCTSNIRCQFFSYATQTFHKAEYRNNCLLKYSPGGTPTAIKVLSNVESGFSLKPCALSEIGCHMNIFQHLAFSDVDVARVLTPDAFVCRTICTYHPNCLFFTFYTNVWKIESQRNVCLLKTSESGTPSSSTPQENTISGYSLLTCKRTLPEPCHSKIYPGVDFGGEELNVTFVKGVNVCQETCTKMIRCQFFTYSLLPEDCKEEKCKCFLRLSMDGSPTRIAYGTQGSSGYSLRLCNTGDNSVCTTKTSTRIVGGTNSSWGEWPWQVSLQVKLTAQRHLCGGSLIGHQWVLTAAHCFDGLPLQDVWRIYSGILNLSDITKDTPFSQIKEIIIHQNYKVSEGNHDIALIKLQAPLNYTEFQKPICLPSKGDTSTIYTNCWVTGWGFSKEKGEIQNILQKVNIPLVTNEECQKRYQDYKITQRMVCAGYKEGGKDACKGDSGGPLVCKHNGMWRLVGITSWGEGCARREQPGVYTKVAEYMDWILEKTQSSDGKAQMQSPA

ecallantide (designed binder) showed an IC50 (read off the curve) in assay [1] of 70 nM.

B1: DX-2930 (antibody, human IgG1, kappa, V domains shown)
VH: EVQLLESGGGLVQPGGSLRLSCAASGFTFSHYIMMWVRQAPGKGLEWVSGIYSSGGITVYADSVKGRFTISRDNSKNTLYLQMNSLRAEDTAVYYCAYRRIGVPRRDEFDIWGQGTMVTVSS
VL: DIQMTQSPSTLSASVGDRVTITCRASQSISSWLAWYQQKPGKAPKLLIYKASTLESGVPSRFSGSGSGTEFTLTISSLQPDDFATYYCQQYNTYWTFGQGTKVEIKR
Regarding B1, the “IC50 (read off the curve)” value in assay [2] was roughly 70 nM.
